Two molecules from patent CN107022030A (GUANGDONG GUYING BIOTECHNOLOGY INDUSTRIAL RES INSTITUTE CO …, dated 2017) can be followed below.

Experiment [1] addresses 人甲胎蛋白(human alpha fetoprotein，hAFP) (human) (UniProt P02771). Kind of experiment: ELISA titre of ascites antibody on hAFP. In general terms: An ELISA detects its analyte on a solid surface through an enzyme-linked reagent.
Experiment [2] has as its target T1, 人血清白蛋白(human serum albumin，HSA) (human, UniProt P02768 25-609).
T1 construct: Used at 40 mg/ml as the cross-reaction antigen; also called HAS
Kind of experiment: indirect ELISA, HSA as cross-reaction antigen.

Where only a bound is given, the exact number is not on record here.

UniProt P02771, sequence (P02771 19-609): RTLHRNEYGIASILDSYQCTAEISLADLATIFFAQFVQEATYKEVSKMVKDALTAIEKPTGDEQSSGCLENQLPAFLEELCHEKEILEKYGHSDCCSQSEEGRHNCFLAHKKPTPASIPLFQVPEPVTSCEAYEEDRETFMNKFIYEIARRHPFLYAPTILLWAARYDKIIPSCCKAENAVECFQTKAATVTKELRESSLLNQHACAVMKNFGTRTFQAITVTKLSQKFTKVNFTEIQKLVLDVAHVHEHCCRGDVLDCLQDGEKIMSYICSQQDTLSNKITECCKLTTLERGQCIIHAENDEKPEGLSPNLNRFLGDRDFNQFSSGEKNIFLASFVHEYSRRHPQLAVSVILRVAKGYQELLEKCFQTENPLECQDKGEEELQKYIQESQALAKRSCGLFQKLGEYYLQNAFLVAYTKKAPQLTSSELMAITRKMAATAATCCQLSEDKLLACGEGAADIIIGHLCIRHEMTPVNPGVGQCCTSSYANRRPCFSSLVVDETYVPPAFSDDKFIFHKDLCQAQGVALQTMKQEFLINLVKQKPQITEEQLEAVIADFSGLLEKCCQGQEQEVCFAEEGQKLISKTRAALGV
T1 sequence (P02768 25-609): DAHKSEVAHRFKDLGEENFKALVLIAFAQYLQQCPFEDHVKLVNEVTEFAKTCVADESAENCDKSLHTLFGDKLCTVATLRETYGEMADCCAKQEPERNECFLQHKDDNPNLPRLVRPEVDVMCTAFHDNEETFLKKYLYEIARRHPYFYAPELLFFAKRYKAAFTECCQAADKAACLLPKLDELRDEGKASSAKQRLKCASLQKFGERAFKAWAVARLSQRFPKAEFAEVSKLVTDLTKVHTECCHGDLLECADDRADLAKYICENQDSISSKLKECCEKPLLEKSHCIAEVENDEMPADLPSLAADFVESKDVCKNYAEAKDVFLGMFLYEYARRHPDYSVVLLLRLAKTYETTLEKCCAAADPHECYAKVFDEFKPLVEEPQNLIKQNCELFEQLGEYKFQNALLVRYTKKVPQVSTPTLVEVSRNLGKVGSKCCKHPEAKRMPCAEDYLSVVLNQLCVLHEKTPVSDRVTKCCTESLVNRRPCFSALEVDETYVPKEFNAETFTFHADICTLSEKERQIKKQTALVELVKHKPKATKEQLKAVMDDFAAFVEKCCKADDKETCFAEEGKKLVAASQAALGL

B1: 单克隆抗体Ab4 (antibody, part only; not given: light chain variable region, constant regions, V domains shown, part only)
VH: VKLQQSGPELVKPGASVTLSCKASGYTFTSYYIHWVKQRPGQELEWIGWIYPGNVNTKYNEKFKGKATLTADKSSSTAYMQLSSLTSEDSAVYFCARCSGRLYYAMDYWGQGTTVTVSS
B1 had a 腹水效价 in experiment [1] below 3e+07.

B2: 单克隆抗体Ab3 (antibody, V domains shown)
VH: VKLQESGAELVKPGASVKLSCTASGFNIKDTYMHWVKQRPEQGLEWIGGIDPANGKTKFDPKFQGKATITADTSSNTAYLHLSRLTSDDTAVYYCVRGQVGGRGWFAYWGQGTTVTVSS
VL: DIQLTQSPSSLSASLGERVSLTCRASQEISGYLSWLQRKPDGTIKRLIYAASTLDSGVPKRFSGSRSGSDYSLTISSLESEDFADYYCLQYASYPYTFGGGTKL
notes: Mouse monoclonal IgG from hybridoma ascites, Protein G purified; HRP-labelled in the immunohistochemistry; also called Ab3-HRP
With B2, in experiment [2], the binding result was “no binding (tested: 40mg/ml)”.
